Measured values from publication PMC5330652 (Journal of the American Chemical Society, 2017).

Target: the molecule itself
Experiment: negative-stain TEM + dynamic light scattering

B1: cowpea chlorotic mottle virus (CCMV) capsid protein (natural protein)
chain: MSTVGTGKLTRAQRRAAARKNKRNTRVVQPVIVEPIASGQGKAIKAWTGYSVSKWTASCAAAEAKVTSAITISLPNELSSERNKQLKVGRVLLWLGLLPSVSGTVKSCVTETQTTAAASFQVALAVADNSKDVVAAMYPEAFKGITLEQLTADLTIYLYSSAALTEGDVIVHLEVEHVRPTFDDSFTPVY
stoichiometry N: 60
